# According to the supplement of paper PMC6379048:
# Columns and labels:
# Test in all cases: Kd (EC50 corrected by depletion factor)
# CHERP = biological target: T1, CHERP (UniProt Q8IWX8)
# T1 sequence: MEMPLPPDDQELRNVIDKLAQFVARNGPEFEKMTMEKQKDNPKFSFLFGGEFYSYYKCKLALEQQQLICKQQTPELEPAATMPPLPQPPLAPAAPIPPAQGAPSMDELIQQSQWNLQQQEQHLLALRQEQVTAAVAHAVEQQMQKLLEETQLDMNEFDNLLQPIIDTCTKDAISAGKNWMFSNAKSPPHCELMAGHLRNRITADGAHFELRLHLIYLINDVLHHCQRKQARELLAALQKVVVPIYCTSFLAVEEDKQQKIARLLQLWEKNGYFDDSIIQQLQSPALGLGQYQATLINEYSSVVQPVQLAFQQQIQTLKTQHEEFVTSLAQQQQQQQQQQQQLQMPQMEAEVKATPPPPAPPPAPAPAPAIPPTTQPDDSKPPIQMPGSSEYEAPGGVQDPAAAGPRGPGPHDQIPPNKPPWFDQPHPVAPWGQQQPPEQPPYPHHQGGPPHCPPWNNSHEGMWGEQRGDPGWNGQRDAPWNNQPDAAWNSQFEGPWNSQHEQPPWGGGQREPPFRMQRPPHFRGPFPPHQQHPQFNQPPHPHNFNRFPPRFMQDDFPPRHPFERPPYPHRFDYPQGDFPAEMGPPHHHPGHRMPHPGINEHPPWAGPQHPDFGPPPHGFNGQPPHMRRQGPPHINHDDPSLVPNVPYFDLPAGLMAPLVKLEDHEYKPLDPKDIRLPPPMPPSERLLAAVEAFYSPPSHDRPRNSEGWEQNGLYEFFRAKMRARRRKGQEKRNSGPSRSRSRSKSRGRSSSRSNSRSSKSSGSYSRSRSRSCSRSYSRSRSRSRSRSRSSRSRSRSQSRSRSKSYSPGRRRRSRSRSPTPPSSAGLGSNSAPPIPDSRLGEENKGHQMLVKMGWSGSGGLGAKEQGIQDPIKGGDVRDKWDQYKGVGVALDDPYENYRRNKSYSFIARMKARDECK
# Method in brief: (§1)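 Kd was calculated as EC50, taken from a four-parameter log-logistic fit, multiplied by a protein-dependent depletion factor. The assay used HEK293-FT lysate (2.5 mg protein/well) pre-incubated for 1 h at 4°C with free RNA oligos (0 nM to 30 μM), then incubated for 30 min at 4°C with the matching oligos bound through a 5′-amino-C6 linker to NHS-Sepharose beads. Bound proteins were measured by label-free LC-MS/MS and normalised to the control.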
# HNRNPDL = biological target: T2, HNRNPDL (UniProt O14979)
# T2 sequence: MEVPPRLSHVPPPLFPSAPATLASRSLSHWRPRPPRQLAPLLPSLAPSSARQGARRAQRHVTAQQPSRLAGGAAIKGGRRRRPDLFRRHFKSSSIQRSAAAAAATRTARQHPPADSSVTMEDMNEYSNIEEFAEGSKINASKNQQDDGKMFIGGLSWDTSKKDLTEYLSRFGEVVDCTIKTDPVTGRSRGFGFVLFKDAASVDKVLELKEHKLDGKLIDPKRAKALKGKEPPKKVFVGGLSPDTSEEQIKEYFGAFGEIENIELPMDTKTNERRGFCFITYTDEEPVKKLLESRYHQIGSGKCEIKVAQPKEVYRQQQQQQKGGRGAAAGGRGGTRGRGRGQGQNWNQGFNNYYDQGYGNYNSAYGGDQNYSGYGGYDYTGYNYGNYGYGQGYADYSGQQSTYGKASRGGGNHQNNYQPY
# Method in brief: as §1
# KHSRP = biological target: T3, KHSRP (UniProt Q92945)
# T3 sequence: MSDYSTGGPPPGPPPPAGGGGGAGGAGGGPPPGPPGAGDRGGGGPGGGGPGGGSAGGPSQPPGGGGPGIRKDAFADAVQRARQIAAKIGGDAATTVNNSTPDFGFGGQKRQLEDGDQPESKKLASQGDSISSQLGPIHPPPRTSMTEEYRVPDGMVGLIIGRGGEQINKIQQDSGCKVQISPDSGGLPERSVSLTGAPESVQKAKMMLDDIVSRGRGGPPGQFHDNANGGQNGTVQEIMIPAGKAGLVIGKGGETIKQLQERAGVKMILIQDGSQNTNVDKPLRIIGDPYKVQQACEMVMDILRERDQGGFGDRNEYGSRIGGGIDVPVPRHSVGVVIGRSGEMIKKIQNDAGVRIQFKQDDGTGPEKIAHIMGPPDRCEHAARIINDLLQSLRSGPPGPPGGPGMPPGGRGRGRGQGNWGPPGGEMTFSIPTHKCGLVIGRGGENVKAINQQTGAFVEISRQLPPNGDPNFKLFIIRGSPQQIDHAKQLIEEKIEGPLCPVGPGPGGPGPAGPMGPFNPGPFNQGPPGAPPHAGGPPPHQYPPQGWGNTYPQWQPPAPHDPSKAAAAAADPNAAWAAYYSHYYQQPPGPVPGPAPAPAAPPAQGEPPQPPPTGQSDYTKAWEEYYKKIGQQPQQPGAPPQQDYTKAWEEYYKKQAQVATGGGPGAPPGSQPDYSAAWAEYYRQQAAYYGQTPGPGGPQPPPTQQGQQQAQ
# Method in brief: as §1
# RBMS3 = biological target: T4, RBMS3 (UniProt Q6XE24)
# T4 sequence: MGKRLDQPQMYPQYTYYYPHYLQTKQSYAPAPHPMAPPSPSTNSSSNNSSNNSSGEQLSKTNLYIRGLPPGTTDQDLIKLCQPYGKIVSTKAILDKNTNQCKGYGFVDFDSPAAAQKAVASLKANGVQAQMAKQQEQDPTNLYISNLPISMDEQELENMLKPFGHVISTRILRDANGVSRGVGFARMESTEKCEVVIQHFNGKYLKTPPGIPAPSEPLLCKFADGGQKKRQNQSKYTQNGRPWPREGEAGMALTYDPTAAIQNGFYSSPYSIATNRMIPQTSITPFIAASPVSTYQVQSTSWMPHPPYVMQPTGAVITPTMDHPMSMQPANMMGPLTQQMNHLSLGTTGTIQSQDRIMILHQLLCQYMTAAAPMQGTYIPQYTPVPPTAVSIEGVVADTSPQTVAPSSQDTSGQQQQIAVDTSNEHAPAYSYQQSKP
# Method in brief: as §1
# SLIRP = SLIRP (UniProt Q9GZT3)
# Method in brief: as §1
sequence,measurement,setting,value
AAUAAA,Kd,CHERP,255 nM
same,Kd,HNRNPDL,152 nM
same,Kd,KHSRP,310 nM
same,Kd,RBMS3,153 nM
same,Kd,SLIRP,393 nM
CUGUCCU,Kd,SLIRP,904 nM
UAUUUAU,Kd,CHERP,19.4 nM
same,Kd,HNRNPDL,2360 nM
same,Kd,KHSRP,928 nM
same,Kd,RBMS3,97.3 nM
